Reference: PMC4491848

Target: platelet membrane glycoprotein (GP) Ib on human platelets (human (endogenous in platelets)) (UniProt P07359)
Chain of UniProt P07359 (P07359 17-652, chain 1 of 2): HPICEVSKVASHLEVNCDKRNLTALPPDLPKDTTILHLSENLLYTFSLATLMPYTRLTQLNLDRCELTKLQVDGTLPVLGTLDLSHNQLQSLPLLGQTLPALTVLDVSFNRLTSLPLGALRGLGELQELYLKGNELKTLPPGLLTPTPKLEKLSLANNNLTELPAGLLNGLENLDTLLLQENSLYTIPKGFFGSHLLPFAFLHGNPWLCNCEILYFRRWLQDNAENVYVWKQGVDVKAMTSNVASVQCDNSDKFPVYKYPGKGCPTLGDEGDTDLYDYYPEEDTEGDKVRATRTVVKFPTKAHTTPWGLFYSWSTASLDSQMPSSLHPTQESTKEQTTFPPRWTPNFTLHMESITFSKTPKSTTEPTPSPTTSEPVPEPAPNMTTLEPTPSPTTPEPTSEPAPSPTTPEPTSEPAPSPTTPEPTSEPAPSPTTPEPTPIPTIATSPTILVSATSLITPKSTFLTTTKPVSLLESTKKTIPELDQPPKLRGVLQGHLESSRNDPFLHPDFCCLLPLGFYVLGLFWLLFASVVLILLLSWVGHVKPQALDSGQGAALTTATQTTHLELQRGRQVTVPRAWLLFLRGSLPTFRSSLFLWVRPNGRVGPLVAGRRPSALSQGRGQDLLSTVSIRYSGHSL
Chain of UniProt P07359 (P13224 26-206, chain 2 of 2, further chain): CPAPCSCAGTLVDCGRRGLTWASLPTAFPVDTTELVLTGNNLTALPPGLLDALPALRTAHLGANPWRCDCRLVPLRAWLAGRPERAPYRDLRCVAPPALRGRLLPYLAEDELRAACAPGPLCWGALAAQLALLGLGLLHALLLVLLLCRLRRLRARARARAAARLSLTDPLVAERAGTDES

Row | Substance | ristocetin-induced platelet aggregation rate in human platelet-rich plasma, dose series up to 3 μg/ml; value at the 3 μg/ml dose; the pair said to be blocked is GPIb and vWF [%]
1 | recombinant Agkisacutacin (complex) | 5.65
2 | natural Agkisacutacin (complex) | 3.46
